The labels stand for the following.
B3: SinR (full-length, tetrameric transcriptional repressor) (natural protein, Bacillus subtilis, UniProt P06533 1-111, looked up)
chain: MIGQRIKQYRKEKGYSLSELAEKAGVAKSYLSSIERNLQTNPSIQFLEKVSAVLDVSVHTLLDEKHETEYDGQLDSEWEKLVRDAMTSGVSKKQFREFLDYQKWRKSQKEE

In series [1] the target is B3. The experiment in a line: AUC.
The series “SEC” deals with the molecule itself. In words: SEC.
The series “AUC” concerns the molecule itself. In words: AUC.
In series [2] the target is T1, SinR (Bacillus subtilis, UniProt P06533 1-111).
T1 sequence: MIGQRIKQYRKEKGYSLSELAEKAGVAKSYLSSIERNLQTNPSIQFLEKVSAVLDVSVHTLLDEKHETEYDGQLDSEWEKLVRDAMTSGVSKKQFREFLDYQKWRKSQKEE
The experiment in a line: fluorescence anisotropy/polarization. A general note: Polarisation of emitted light reports the rotation of a fluorescent probe.

In series [3] the target is T1, SinR. The experiment in a line: fluorescence quenching DNA-bending assay.

6 molecules from publication PMC7384550 (Journal of molecular biology, 2019) can be followed below.

B1: SinI (antagonist of SinR) (natural protein, Bacillus subtilis, UniProt P23308 1-57, looked up)
chain: MKNAKQEHFELDQEWVELMVEAKEANISPEEIRKYLLLNKKSAHPGPAARSHTVNPF
One may read the stoichiometry N as the number of molecules, sites or subunits per partner or assembly. As for B1, the binding result in series [1] is listed as “binds”. Further, the “stoichiometry N” value in the series “SEC” turned out to be 2.

B2: SinI^quad (SinI K34E, L38Y, K41W, S42R) (natural protein, Bacillus subtilis, UniProt P23308 1-57, looked up)
chain: MKNAKQEHFELDQEWVELMVEAKEANISPEEIREYLLYNKWRAHPGPAARSHTVNPF
As to B2, in series [1], the binding result is recorded as “binds”. Moreover, the “stoichiometry N” value in the series “AUC” came to 2.
For the molecule B3, the “stoichiometry N” value in “SEC” worked out at 4.
Same read-out and setting: under EYDGQLDSEWEKLVRDAMTSGVSKKQFREFLDYQKWRKSQKEE (domain or fragment, Bacillus subtilis, UniProt P06533 69-111, looked up) [SinRC, the C-terminal oligomerization domain of SinR (residues 69-111)] stands 4.

B4: 22-mer inverted repeat, 6-FAM (dsDNA)
DNA 1: TTTGTTCTCTAAAGAGAACTTA
DNA 2: TAAGTTCTCTTTAGAGAACAAA
A word on the Kd: it is the free concentration of one partner at which half of the binding sites on the other are occupied at equilibrium, for simple one-to-one binding. A low value points to higher affinity. For the molecule B4, in the series with SinR [2], binding was put at a Kd of 249 ± 38 nM.

B5: 90 bp tapA-sipW-tasA promoter bending substrate (dsDNA)
DNA 1: GAAAGTTCTCTAAAGAGAACATTATAAATAATAAGGGAAGTGCAGTAAATTAGAGGAAAATCATGTATTGTTCTCTAAAGAGAACTTAG
DNA 2: CTAAGTTCTCTTTAGAGAACAATATCATGATTTTCCTCTAATTTACTGCACTTCCCTTATTATTTATAATGTTCTCTTTAGAGAACTTTC
modifications: internal fluorescein-dT (T22 of strand 1); internal BHQ-1-dT (T25 of strand 2), both written as T
With B5, the binding result with SinR [3] is “binds”.
